Data taken from PMC7302216.

Target: SARS-CoV 2P DS S (SARS-CoV) (UniProt P59594)
Assay: negative-stain electron microscopy

## SARS-CoV 2P DS S (from UniProt P59594 14-1195) (domain or fragment)
  stoichiometry N: 3
